Experimental findings from US20210371536A1 (SEOUL NATIONAL UNIVERSITY R AND DB FOUNDATION, published 2021) are described below.

Experiment [1] deals with hPDGFR-β on human pericyte cells (human, UniProt P09619 33-1106). Put plainly: cell-based or functional assay.
The target of experiment [2] is T1, cynomolgus monkey PDGFR-β (Fc chimera) (cynomolgus monkey).
T1 construct: not shown: human Fc (hFc) and its junction to the receptor part
T1 chain: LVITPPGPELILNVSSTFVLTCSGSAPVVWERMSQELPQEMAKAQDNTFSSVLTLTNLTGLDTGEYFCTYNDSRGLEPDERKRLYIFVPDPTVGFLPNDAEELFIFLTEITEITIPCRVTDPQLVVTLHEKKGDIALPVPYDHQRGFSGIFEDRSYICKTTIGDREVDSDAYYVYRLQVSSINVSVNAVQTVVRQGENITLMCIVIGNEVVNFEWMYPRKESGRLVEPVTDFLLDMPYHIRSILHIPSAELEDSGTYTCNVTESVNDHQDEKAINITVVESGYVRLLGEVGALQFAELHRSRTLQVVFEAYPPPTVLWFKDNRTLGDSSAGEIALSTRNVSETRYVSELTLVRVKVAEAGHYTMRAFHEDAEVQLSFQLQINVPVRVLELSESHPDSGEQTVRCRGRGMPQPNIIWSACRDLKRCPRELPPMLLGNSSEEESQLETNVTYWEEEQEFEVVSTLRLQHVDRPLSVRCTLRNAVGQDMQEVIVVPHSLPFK
Put plainly: cross-species ELISA on coated antigen, 100 nM bispecific, HRP-anti-human Cκ detection. For orientation: An ELISA detects its analyte on a solid surface through an enzyme-linked reagent.

Experiment [3] concerns the target T2, Sus scrofa PDGFR-β-Fc chimera (Sus scrofa, UniProt Q6QNF3 33-530 (dog entry)).
T2 construct: also called Sus crowfa PDGFR-β; not shown: human Fc (hFc) and its junction to the receptor part
T2 chain: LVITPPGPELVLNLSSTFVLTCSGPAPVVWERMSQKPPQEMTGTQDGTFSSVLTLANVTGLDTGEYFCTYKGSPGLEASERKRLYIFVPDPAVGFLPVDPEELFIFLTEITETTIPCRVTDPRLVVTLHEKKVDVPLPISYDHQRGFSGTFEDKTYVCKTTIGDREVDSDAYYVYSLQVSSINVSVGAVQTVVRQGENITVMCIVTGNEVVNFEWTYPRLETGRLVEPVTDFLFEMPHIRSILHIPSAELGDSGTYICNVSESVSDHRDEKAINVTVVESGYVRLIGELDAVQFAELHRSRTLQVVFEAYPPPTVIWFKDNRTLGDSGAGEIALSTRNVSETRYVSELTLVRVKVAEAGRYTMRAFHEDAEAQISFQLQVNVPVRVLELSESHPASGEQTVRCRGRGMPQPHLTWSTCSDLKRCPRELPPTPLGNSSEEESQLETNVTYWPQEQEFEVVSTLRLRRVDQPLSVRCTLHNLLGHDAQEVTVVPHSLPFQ
The experiment is described as above.

The target of experiment [4] is T3, mPDGFR-β on NIH3T3 cells (mouse, UniProt P05622 32-1098).
T3 construct: whole, on cells; also called NIH3T3 cells expressing mPDGFR-β; PDGFR-β present on the cell surface
T3 sequence (P05622 32-1098): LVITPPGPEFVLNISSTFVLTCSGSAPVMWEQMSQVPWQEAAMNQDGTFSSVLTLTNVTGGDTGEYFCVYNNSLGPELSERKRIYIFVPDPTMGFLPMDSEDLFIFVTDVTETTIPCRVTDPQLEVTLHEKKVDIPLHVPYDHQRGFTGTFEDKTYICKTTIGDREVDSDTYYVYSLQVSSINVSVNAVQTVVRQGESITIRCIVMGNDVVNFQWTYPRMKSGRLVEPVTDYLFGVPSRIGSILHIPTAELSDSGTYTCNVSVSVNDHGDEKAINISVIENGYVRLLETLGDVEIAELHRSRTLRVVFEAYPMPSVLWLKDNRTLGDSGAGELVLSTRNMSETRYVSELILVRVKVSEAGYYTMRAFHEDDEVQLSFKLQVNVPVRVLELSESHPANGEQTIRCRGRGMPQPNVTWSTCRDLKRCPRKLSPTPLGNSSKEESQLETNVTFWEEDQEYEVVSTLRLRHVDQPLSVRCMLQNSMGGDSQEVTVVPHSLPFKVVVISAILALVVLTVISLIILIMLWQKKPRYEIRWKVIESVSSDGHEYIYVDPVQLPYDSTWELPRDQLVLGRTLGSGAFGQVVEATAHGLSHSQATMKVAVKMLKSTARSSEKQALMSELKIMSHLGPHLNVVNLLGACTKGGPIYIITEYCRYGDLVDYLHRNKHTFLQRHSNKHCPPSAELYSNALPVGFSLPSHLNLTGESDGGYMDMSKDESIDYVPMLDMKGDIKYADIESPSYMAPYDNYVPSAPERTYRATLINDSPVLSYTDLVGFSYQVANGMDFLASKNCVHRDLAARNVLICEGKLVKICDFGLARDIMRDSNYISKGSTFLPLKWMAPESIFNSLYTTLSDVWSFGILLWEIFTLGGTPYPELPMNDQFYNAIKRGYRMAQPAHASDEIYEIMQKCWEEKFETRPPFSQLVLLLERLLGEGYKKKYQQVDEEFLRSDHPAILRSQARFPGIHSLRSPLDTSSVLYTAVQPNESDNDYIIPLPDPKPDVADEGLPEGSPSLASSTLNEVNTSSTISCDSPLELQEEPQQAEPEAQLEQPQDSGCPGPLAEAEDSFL
Nature of the experiment: flow cytometry on NIH3T3 cells expressing mPDGFR-β, 100 nM, APC-anti human Cκ detection. (In flow cytometry, cells or beads pass a laser one at a time.)

Experiment [5] deals with T3, mPDGFR-β on NIH3T3 cells. Put plainly: flow cytometry on NIH3T3 cells expressing mPDGFR-β, streptavidin-PE detection.
Protocol: The cells were treated with APC-anti human Cκ antibody and streptavidin-PE.
After washing, it was classified and analyzed with a FACS Canto II instrument (BD Biosciences, San Jose, Calif., USA). 10,000 cells were used for each measurement, and the results were analyzed by FlowJo (Tree Star, Ashland, Oreg., USA).

Chain of hPDGFR-β on human pericyte cells (P09619 33-1106): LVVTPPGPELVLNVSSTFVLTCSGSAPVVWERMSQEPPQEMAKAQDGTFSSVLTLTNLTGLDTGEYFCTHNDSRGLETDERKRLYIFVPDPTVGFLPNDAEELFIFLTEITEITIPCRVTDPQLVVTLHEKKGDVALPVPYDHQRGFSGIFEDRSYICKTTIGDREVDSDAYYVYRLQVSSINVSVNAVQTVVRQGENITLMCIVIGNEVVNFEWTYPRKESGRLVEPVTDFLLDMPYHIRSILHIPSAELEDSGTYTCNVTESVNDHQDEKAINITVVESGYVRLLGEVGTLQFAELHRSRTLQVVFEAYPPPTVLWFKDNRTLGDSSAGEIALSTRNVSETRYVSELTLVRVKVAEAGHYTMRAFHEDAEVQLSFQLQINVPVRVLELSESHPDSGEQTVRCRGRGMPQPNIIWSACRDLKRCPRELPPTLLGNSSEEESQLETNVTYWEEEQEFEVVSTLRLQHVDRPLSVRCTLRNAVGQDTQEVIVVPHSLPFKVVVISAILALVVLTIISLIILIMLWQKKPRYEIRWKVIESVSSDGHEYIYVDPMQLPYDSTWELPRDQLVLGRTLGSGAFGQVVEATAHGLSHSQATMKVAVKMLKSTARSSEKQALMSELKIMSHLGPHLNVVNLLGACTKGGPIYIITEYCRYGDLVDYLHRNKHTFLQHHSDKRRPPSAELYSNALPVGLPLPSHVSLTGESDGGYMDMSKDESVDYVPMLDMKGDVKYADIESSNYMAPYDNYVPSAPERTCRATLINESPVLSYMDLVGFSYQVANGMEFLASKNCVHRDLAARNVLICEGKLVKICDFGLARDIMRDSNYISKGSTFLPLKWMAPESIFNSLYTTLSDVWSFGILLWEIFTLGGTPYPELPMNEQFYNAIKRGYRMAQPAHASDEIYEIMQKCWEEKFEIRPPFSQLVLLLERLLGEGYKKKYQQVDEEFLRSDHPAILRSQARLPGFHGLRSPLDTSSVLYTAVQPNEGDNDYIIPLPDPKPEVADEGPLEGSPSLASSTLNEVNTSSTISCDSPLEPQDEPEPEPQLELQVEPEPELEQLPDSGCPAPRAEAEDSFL

B1: PRb-CN32 x cotinine scFv-Cκ-scFv fusion protein (bispecific antibody) (bispecific antibody)
chain: LTQPSSVSANLGETVKITCSGGSNAGSYYYGWYQQKSPGSAPVTVIYSNNQRPSDIPSRFSGSTSGSTSTLTITGVQVDDEAVYFCGSGDSSSIAAFGAGTTLTVLGQSSRSSGGGGSSGGGGSAVTLDESGGGLQTPRGTLSLVCKASGFTFSSFNMFWVRQAPGKGLEFVAGISTTGRYTGYGSAVQGRGTISRDNGQSTVRLQLNNLRAEDTGTYYCAKSAGSTYSYWDSDAGLIDAWGHGTEVIVSSTSGGGGSGGGGSGGGGSRTVAAPSVFIFPPSDEQLKSGTASVVCLLNNFYPREAKVQWKVDNALQSGNSQESVTEQDSKDSTYSLSSTLTLSKADYEKHKVYACEVTHQGLSLPVTKSFNRGESGGGGSGGGGSGGGGSDIQMTQSPSSLSASVGDRVTITCQSSQSPYSNEWLSWYQQKPGKAPKLLIYRISTLASGVPSRFSGSRSGTDFTLTISSLQPEDFATYYCAGGYNFGLFLFGQGTKVEIKGQSSRSSGGGGSSGGGGSEVQLVESGGGLVQPGGSLRLSCAASGHLRRRDWMNWVRQAPGKGLEWVAAIGRSGDTYYATWAKGRFTISADTSKNTAYLQMNSLRAEDTAVYYCSRIPYFGWNNGDIWGQGTLVTVSS
notes: also called PRb-32; PRb-CN32 bispecific scFv-Cκ-scFv
B1: in experiment [1], the “IC50 (nM) of relative cell viability (cellular ATP), human pericyte cells, bispecific complexed with cot-duo, with hPDGF-BB” value is 0.87 nM. The “IC50 (nM) of relative cell viability (cellular ATP), human pericyte cells, bispecific complexed with cot-duo, without hPDGF-BB” value in experiment [1] was 0.78 nM. For the same molecule, the binding result (in experiment [2]; in experiment [3]; in the experiment with mPDGFR-β on NIH3T3 cells [4]) was “binds” in each case.

B2: mPDGF-BB-biotin (ligand, mouse, UniProt P31240 82-190, looked up)
chain: SLGSLAAAEPAVIAECKTRTEVFQISRNLIDRTNANFLVWPPCVEVQRCSGCCNNRNVQCRASQVQMRPVQVRKIEIVRKKPIFKKATVTLEDHLACKCETIVTPRPVT
modifications: biotinylated (biotin-xx microscale protein labeling kit); sites not stated
notes: also called biotin-mPDGF-BB
As to B2, the binding result with mPDGFR-β on NIH3T3 cells [5] was “binds”.
